Positions count from the first letter of the chain named. Names may count otherwise.

The target of the series is MspA-((Del-L74/G75/D118/L119)D56F/E59R/L88N/D90N/D91N/Q126R/D134R/E139K)8.

B1: T4 Dda-F98W/E94C/C109A/C136A/K194L/A360C (protein)
chain: GTFDDLTEGQKNAFNIVMKAIKEKKHHVTINGPAGTGKTTLTKFIIEALISTGETGIILAAPTHAAKKILSKLSGKEASTIHSILKINPVTYECNVLWEQKEVPDLAKARVLICDEVSMYDRKLFKILLSTIPPWATIIGIGDNKQIRPVDPGENTAYISPFFTHKDFYQCELTEVKRSNAPIIDVATDVRNGLWIYDKVVDGHGVRGFTGDTALRDFMVNYFSIVKSLDDLFENRVMAFTNKSVDKLNSIIRKKIFETDKDFIVGEIIVMQEPLFKTYKIDGKPVSEIIFNNGQLVRIIEAEYTSTFVKARGVPGEYLIRHWDLTVETYGDDEYYREKIKIISSDEELYKFNLFLGKTCETYKNWNKGGKAPWSDFWDAKSQFSKVKALPASTFHKAQGMSVDRAFIYTPCIHYADVELAQQLLYVGVTRGRYDVFYV
For the protein B1, the % complement bases missed through slipping worked out at 1.9%, the Average slip length was 23.3, the Number complement slips per 3.6 kb (slips per 3.6 kb) amounted to 3 and the Number complement slips per kb was 0.8 slips per kb. Moreover, the Total length of complement slips is 70.

B2: T4 Dda-E94C/F98W/C109A/C136A/K199L/A360C (protein)
chain: B1 chain with L194K, K199L
B2 showed a % complement bases missed through slipping of 3.6%, an Average slip length of 21.5, a Number complement slips per 3.6 kb (slips per 3.6 kb) of 6 and a Number complement slips per kb of 1.7 slips per kb. In addition, the Total length of complement slips worked out at 129.

These data come from patent publication US20180179500.
